Results reported in patent publication US10544215B2, “1-(Chloromethyl)-2,3-dihydro-1H-benzo[e]indole dimer antibody-drug conjugate compounds, and methods of use and treatment” (priority 2013, dated 2020).

tested on: EOL-1; test: EOL-1 in vitro cell viability (CellTiter-Glo cell proliferation assay); type: cell-based, human; conditions: at 3 days versus ADC concentrations (μg/ml)
Source text: The CellTiter-Glo® Luminescent Cell Viability Assay is a commercially available (Promega Corp., Madison, Wis.), homogeneous assay method based on the recombinant expression of Coleoptera luciferase (U.S. Pat. Nos. 5,583,024; 5,674,713; 5,700,670). This cell proliferation assay determines the number of viable cells in culture based on quantitation of the ATP present, an indicator of metabolically active cells (Crouch et al (1993) J. Immunol. Meth. 160:81-88; U.S. Pat. No. 6,602,677). The CellTiter-Glo® Assay was conducted in 96 well format, making it amenable to automated high-throughput screening (HTS) (Cree et al (1995) AntiCancer Drugs 6:398-404). The homogeneous assay procedure involves adding the single reagent (CellTiter-Glo® Reagent) directly to cells cultured in serum-supplemented medium. Cell washing, removal of medium and multiple pipetting steps are not required. The system detects as few as 15 cells/well in a 384-well format in 10 minutes after adding reagent and mixing. The cells may be treated continuously with ADC, or they may be treated and separated from ADC.
The homogeneous “add-mix-measure” format results in cell lysis and generation of a luminescent signal proportional to the amount of ATP present. The amount of ATP is directly proportional to the number of cells present in culture. […] Viable cells are reflected in relative luminescence units (RLU). […]
Efficacy of ADC was measured by a cell proliferation assay employing the following protocol ([…] GLO™ Luminescent Cell Viability Assay, Promega Corp. Technical Bulletin TB288; Mendoza et al (2002) Cancer Res. 62:5485-5488): • 1. […] The plate was incubated at room temperature for 10 minutes to stabilize the luminescence signal. • 8. Luminescence was recorded and reported in graphs as RLU=relative luminescence units. • Data are plotted as the mean of luminescence for each set of replicates, with standard deviation error bars. […]

| Molecule | cell-killing activity (EOL-1 in vitro cell viability) |
| --- | --- |
| ADC 125: Thio Hu Anti-CD33 15G15.33 HC A118C-MC-MMED-(CBI dimer phos); linker-CBI intermediate 57 (conjugate) VH: QVQLVQSGAEVKKPGSSVKVSCKASGGIFSNHAISWVRQAPGQGLEWMGGIIPIFGTANYAQKFQGRVTITADESTSTAFMELSSLRSEDTAVYYCAREWADVFDIWGQGTMVTVSS VL: EIVLTQSPLSLPVTPGEPASISCRSSQSLLHSNGYNYLDWYLQKPGQSPQLLIYLGVNSVSGVPDRFSGSGSGTDFTLKISRVEAEDVGVYYCMQALQTPWTFGQGTKVEIK | modest dose response cell-killing activity |
| ADC 129: Thio Hu Anti-CD33 15G15.33 HC A118C-MC-ED-(CBI dimer DVB phos); linker-CBI intermediate 68 (conjugate) VH: QVQLVQSGAEVKKPGSSVKVSCKASGGIFSNHAISWVRQAPGQGLEWMGGIIPIFGTANYAQKFQGRVTITADESTSTAFMELSSLRSEDTAVYYCAREWADVFDIWGQGTMVTVSS VL: EIVLTQSPLSLPVTPGEPASISCRSSQSLLHSNGYNYLDWYLQKPGQSPQLLIYLGVNSVSGVPDRFSGSGSGTDFTLKISRVEAEDVGVYYCMQALQTPWTFGQGTKVEIK | potent, dose responsive cell-killing activity |
| ADC 127: Thio Hu Anti-CD33 15G15.33 HC A118C-MC-ED-(CBI dimer DVB diphos); linker-CBI intermediate 66 (conjugate) VH: QVQLVQSGAEVKKPGSSVKVSCKASGGIFSNHAISWVRQAPGQGLEWMGGIIPIFGTANYAQKFQGRVTITADESTSTAFMELSSLRSEDTAVYYCAREWADVFDIWGQGTMVTVSS VL: EIVLTQSPLSLPVTPGEPASISCRSSQSLLHSNGYNYLDWYLQKPGQSPQLLIYLGVNSVSGVPDRFSGSGSGTDFTLKISRVEAEDVGVYYCMQALQTPWTFGQGTKVEIK | potent, dose responsive cell-killing activity |
